Data as given in US20190055322A1.
Values joined by “and” are separate entries in the source; they are usually repeats but may differ in a detail not shown here. Identical values can stand only once.

B1: Nanobody 285 (13F07-40GS-2B02) (VHH)
chain: EVQLVESGGGLVQAGGSLRLSCAASGNTFSTNPMYWYRQAEGKQRELVASISSRGITNYADSVRGRFSISRDNTKDTVYLQMNSLKPEDTAVYYCRLASLSSGTVYWGKGTLVTVSSGGGGSGGGGSGGGGSGGGGSGGGGSGGGGSGGGGSGGGGSEVQLVESGGGLVQPGDSLRLSCAASGRILSINNMVWYRQAPGKQRELVAHITSSGSTGYADSVKGRFTISRDNAKNTFYLQMTNLNPEDTAVYYCNCWVSSDSNAPLKNYWGQGTLVTVSS
B2: Nanobody 319 (13F07-40GS-6B05) (VHH)
chain: EVQLVESGGGLVQAGGSLRLSCAASGNTFSTNPMYWYRQAEGKQRELVASISSRGITNYADSVRGRFSISRDNTKDTVYLQMNSLKPEDTAVYYCRLASLSSGTVYWGKGTLVTVSSGGGGSGGGGSGGGGSGGGGSGGGGSGGGGSGGGGSGGGGSEVQLVESGGGLVQPGGSLRLSCAASGSIFSINTMGWYRQAPGKQRELVSTITSNLVPHYADSVQGRFTISRDNARNTVYLQMNSLKPQDTAHYYCNAWARSSGATPYTNYWGQGTLVTVSS
B3: Nanobody 335 (5H01-40GS-1E11) (VHH)
chain: EVQLVESGGGLVQPGGSLRLSCAASGSTLDYYAIGWFRQAPGKEREGVSCTSNSGSTYYGGSVKGRFTASRDNAKNTVYLQMNSLRPEDTAVYYCVATIGCATLGGTLDVQRYYYRGQGTLVTVSSGGGGSGGGGSGGGGSGGGGSGGGGSGGGGSGGGGSGGGGSEVQLVESGGGLVQPGGSLRLSCAASGSTRSVNPMAWFRQAPGRQREWVATISRSGYATYADSVKGRFTISGDNAKSSVYLQMNSLKPEDTAVYYCVTGTYWGQGTLVTVSS

The binders below were run against different PcrV variants and reference strain PAO1 (23 PcrV sequence variants, GST-PcrV-His6).

Binder	EC50
B1	0.1 nM
B2	0.08 nM and 0.1 nM
B3	0.07 nM and 0.09 nM
